# Target: human RXFP1 (human) (UniProt Q9HBX9)
# Sequence of UniProt Q9HBX9 (Q9HBX9 whole entry): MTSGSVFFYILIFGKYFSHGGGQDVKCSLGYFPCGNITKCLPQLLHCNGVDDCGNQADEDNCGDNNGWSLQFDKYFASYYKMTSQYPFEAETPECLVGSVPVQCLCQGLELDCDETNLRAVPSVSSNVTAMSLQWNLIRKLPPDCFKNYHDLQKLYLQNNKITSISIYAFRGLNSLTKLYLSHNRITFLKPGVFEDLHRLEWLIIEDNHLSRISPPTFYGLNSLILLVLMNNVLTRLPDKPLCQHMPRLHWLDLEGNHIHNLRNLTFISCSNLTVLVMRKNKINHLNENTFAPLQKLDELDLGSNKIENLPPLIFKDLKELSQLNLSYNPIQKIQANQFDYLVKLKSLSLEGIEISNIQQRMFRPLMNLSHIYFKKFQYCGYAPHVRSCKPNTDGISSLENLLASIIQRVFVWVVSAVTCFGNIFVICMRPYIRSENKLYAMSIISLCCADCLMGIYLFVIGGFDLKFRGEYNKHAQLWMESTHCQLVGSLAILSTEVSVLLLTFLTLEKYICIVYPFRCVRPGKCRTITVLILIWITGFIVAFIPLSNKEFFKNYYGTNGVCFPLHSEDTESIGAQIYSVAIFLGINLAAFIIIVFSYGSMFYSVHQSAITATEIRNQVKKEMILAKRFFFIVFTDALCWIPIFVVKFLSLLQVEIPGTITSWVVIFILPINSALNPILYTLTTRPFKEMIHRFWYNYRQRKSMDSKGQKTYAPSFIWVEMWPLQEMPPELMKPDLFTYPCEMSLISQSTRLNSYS
substance,measurement,value
native relaxin-2 (ligand),"EC50, Gs signaling (CRE-SEAP, Figure 1c and Table S1)",0.1 nM

# — PMC11372834
